Reference: article PMC6297234, “aPKC controls endothelial growth by modulating c-Myc via FoxO1 DNA-binding ability”

Biological target: GST-FoxO1 DBD (Homo sapiens, UniProt Q12778 151-266)
Experiment: EMSA; 1 µM protein, 1 nM DNA, 1 ng/mL poly dI-dC; 20 mM Tris pH 8.0, 50 mM KCl, 5% glycerol, 2 mM DTT, 0.2 mM EDTA, 2 mM MgCl2, 0.1 mg/mL BSA, 1 ng/mL poly dI-dC; RT 30 min; 6% gel in 0.5X TBE at 4 °C
Settings: protein: recombinant; tags: GST (pDEST15, N-terminal); blunt

Chain of GST-FoxO1 DBD (Q12778 151-266): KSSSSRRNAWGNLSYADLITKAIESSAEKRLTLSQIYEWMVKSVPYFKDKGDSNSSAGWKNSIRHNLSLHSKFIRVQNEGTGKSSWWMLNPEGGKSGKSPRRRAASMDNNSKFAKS

B1: FoxO DBE duplex (dsDNA)
DNA 1: CAAAATGTAAACAAGA
DNA 2: TCTTGTTTACATTTTG
**Q.** Does B1 bind?
**A.** Result: binds
